Assay [1] addresses binding of FAM19A5 protein to full-length ectodomain of the LRRC4B protein (amino acids 36-576 of SEQ ID NO: 2) (Homo sapiens, UniProt Q7Z5A7). As to the kind of experiment: Competitive inhibition assay, plate coated with full-length ectodomain of LRRC4B (amino acids 36-576). Particulars: for inhibition of interaction between FAM19A5 and the coated LRRC4B protein fragments (in words): statement covers both coats, LRRC4B (36-576) and LRRC4B (453-576). How it is done:
Next, to further assess the role that the binding domain of the LRRC4B protein has on the interaction between FAM19A5 protein and members of the LRRC4 protein family, a competitive inhibition assay was used to determine whether different LRRC4B deletion constructs from Example 2 could inhibit the binding of FAM19A5 to the full-length ectodomain of the LRRC4B protein (i.e., amino acids 36-576 of SEQ ID NO: 2; SEQ ID NO: 5). Briefly, 100 nM of the full-length ectodomain of the LRRC4B protein was used to coat a plate, and then recombinant FAM19A5 protein (5 ng/mL) was added to the plate in combination with the following LRRC4B deletion constructs (increasing concentrations): (1) LRRC4B (453-576) (i.e., construct #11 in Table 6); (2) LRRC4B (453-576) mutant (comprises alanine substitutions at positions 488 and 489 of SEQ ID NO: 2; SEQ ID NO: 16); (3) LRRC4B (484-576) (i.e., construct #12 in Table 6); (4) LRRC4B (482-576); (5) LRRC4B (482-497); and (6) LRRC4B (498-576). The plates were incubated at 37° C., and then, the amount of FAM19A5 bound to the coated LRRC4B ectodomain protein was measured using HRP-conjugated anti-FAM19A5 (1-65) antibody.
As described in Example 3, there appeared to be much similarity in the binding domains of the different members of the LRRC4 family. […] Then, recombinant FAM19A5 protein (5 ng/mL) was added in combination with one of the following: (i) LRRC4B (484-576) protein fragment, (ii) LRRC4B (453-576, AA) protein fragment, and (iii) synthetic FB-20 peptide. The plates were incubated at 37° C., and then, the amount of FAM19A5 protein bound to the coated LRRC4, LRRC4B, or LRRC4C proteins was measured using anti-FAM19A5 (1-65) antibody.
(§1) Next, to assess whether polypeptides comprising the binding domains of LRRC4 or LRRC4C proteins can have similar inhibitory effects on LRRC4B protein binding, the following synthetic peptides were constructed: (1) FBC4-23 (contains the binding domain of the LRRC4 protein, i.e., YSFFTTVTVETTE); and (2) FBC4C-23 (contains the binding domain of the LRRC4C protein, i.e., FSYFSTVTVETME). Then, the ability of the peptides to inhibit the binding of LRRC4 protein family members to FAM19A5 protein was assessed using a competitive inhibition assay. Briefly, plates were coated with 100 nM of either LRRC4B protein fragment #1 (amino acids 36-576 of SEQ ID NO: 2; SEQ ID NO: 5) or LRRC4B protein fragment #2 (amino acids 453-576 of SEQ ID NO: 2; SEQ ID NO: 7). Then, recombinant FAM19A5 protein (5 ng/ml for plates coated with LRRC4B fragment #1; and 1 ng/mL for plates coated with LRRC4B fragment #2) was added to the plates in combination with 20 nM of the FBC4-23, FBC4C-23, and FB-20 peptides. The plates were incubated at 37° C. and then, the amount of FAM19A5 protein bound to the coated LRRC4B protein fragments was assessed using HRP-conjugated anti-FAM19A5 (1-65) antibody.
Next, to determine the minimal sequence required to inhibit the interaction of FAM19A5 and members of the LRRC4 protein family, ten FB-20 peptide variants were constructed by serially deleting one or more amino acids from the N-terminus or C-terminus of the FB-20 peptide. Then, a competitive inhibition assay was used to assess the ability of the different FB-20 peptide variants to inhibit the interaction between FAM19A5 and LRRC4B protein. Again, plates were coated with 100 nM of either LRRC4B protein fragment #1 (amino acids 36-576 of SEQ ID NO: 2; SEQ ID NO: 5) or LRRC4B protein fragment #2 (amino acids 453-576 of SEQ ID NO: 2; SEQ ID NO: 7). Then, recombinant FAM19A5 protein (5 ng/ml for plates coated with LRRC4B fragment #1; and 1 ng/mL for plates coated with LRRC4B fragment #2) was added to the plates in combination with 20 nM of the different peptides described above. After incubating the plates at 37° C., the amount of FAM19A5 protein bound to the coated LRRC4B protein fragments was assessed using HRP-conjugated anti-FAM19A5 (1-65) antibody. […]

For assay [2], the target named is binding of FAM19A5 protein to LRRC4B (amino acids 453-576)-hFc (Homo sapiens, UniProt Q7Z5A7). Briefly: Competitive inhibition assay, plate coated with LRRC4B (amino acids 453-576)-hFc, peptides at 20 nM.
Source text: as §1
Next, to determine the minimal sequence required to inhibit the interaction of FAM19A5 and members of the LRRC4 protein family, ten FB-20 peptide variants were constructed by serially deleting one or more amino acids from the N-terminus or C-terminus of the FB-20 peptide. Then, a competitive inhibition assay was used to assess the ability of the different FB-20 peptide variants to inhibit the interaction between FAM19A5 and LRRC4B protein. Again, plates were coated with 100 nM of either LRRC4B protein fragment #1 (amino acids 36-576 of SEQ ID NO: 2; SEQ ID NO: 5) or LRRC4B protein fragment #2 (amino acids 453-576 of SEQ ID NO: 2; SEQ ID NO: 7). Then, recombinant FAM19A5 protein (5 ng/ml for plates coated with LRRC4B fragment #1; and 1 ng/mL for plates coated with LRRC4B fragment #2) was added to the plates in combination with 20 nM of the different peptides described above. After incubating the plates at 37° C., the amount of FAM19A5 protein bound to the coated LRRC4B protein fragments was assessed using HRP-conjugated anti-FAM19A5 (1-65) antibody.
To identify the critical amino acid residues, multiple FB-20 peptide mutants were constructed, in which the individual residues of the core binding domain (i.e., YTYFTTVTVETLE; SEQ ID NO: 15) were substituted with alanine (A) or asparagine (N). Then, the ability of these FB-20 peptide mutants to inhibit the interaction between LRRC4B and FAM19A5 proteins was assessed, as described in Examples 3 and 4.

Where [3] appears, read: Table 9, deletion variants, 20 nM peptide, FAM19A5 5 ng/ml.
Setting [4] is: Table 9, deletion variants, 20 nM peptide, FAM19A5 1 ng/mL.
Where [5] appears, read: Table 10, alanine/asparagine mutants.

Ends that are not written are not given here.

binding of FAM19A5 protein to full-length ectodomain of the LRRC4B protein (amino acids 36-576 of SEQ ID NO: 2), sequence (Q7Z5A7 44-132): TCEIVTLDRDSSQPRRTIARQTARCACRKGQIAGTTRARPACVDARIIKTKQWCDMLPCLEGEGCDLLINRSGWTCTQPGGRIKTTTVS
binding of FAM19A5 protein to LRRC4B (amino acids 453-576)-hFc, sequence (Q7Z5A7 44-132): as above

On to KNYTYFTTNKETQ [FB-m6dC], for which the “inhibition of interaction between FAM19A5 and the coated LRRC4B protein fragments (in words)” value in assay [1] (20 nM peptide) is reported as “failed to significantly inhibit”. For the same substance, the “Inhibition rate (%) LRRC4B (amino acids 36-576)-hFc” value in assay [1] (setting [3]) was found to be 14.9%. For the same substance, the “Inhibition rate (%) LRRC4B (amino acids 453-576)-hFc” value in assay [2] (setting [4]) stood at 5.5%.

As to GATYFTTVTVETLETQPGEE [FB-20[A1]], the “Inhibition rate (%) LRRC4B (amino acids 36-576)-hFc” value in assay [1] (setting [5]) is reported as 17.2%. Moreover, the “Inhibition rate (%) LRRC4B (amino acids 453-576)-hFc” value in assay [2] (setting [5]) turned out to be 3.6%.

As for GYTYFTNVTVETLETQPGEE [FB-20[N6]], the “Inhibition rate (%) LRRC4B (amino acids 36-576)-hFc” value in assay [1] (setting [5]) is listed as −11.4%. Moreover, the “Inhibition rate (%) LRRC4B (amino acids 453-576)-hFc” value in assay [2] (setting [5]) is listed as −0.4%.

As for KNTTVTVETNKETQ [FB-m7dN], the “inhibition of interaction between FAM19A5 and the coated LRRC4B protein fragments (in words)” value in assay [1] (20 nM peptide) was “failed to significantly inhibit”. The “Inhibition rate (%) LRRC4B (amino acids 36-576)-hFc” value in assay [1] (setting [3]) stood at 2.0%. The “Inhibition rate (%) LRRC4B (amino acids 453-576)-hFc” value in assay [2] (setting [4]) was −1.8%.

For the substance GYTYFTTVAVETLETQPGEE [FB-20[A8]], the “Inhibition rate (%) LRRC4B (amino acids 36-576)-hFc” value in assay [1] (setting [5]) is recorded as 3.9%. Moreover, the “Inhibition rate (%) LRRC4B (amino acids 453-576)-hFc” value in assay [2] (setting [5]) is recorded as −0.4%.

Regarding KNYTYFTTVTNKETQ [FB-m8dC], in assay [1] (20 nM peptide), the “inhibition of interaction between FAM19A5 and the coated LRRC4B protein fragments (in words)” value is “failed to significantly inhibit”. The “Inhibition rate (%) LRRC4B (amino acids 36-576)-hFc” value in assay [1] (setting [3]) was determined as 5.1%. In assay [2] (setting [4]), the “Inhibition rate (%) LRRC4B (amino acids 453-576)-hFc” value is listed as −0.9%.

With KNYFTTVTVETNKETQ [FB-m9dN], the “inhibition of interaction between FAM19A5 and the coated LRRC4B protein fragments (in words)” value in assay [1] (20 nM peptide) is “failed to significantly inhibit”. The “Inhibition rate (%) LRRC4B (amino acids 36-576)-hFc” value in assay [1] (setting [3]) is recorded as 2.5%. Moreover, the “Inhibition rate (%) LRRC4B (amino acids 453-576)-hFc” value in assay [2] (setting [4]) is −1.6%.

Turning to GYTYFTTVTVENLETQPGEE [FB-20[N11]], in assay [1] (setting [5]), the “Inhibition rate (%) LRRC4B (amino acids 36-576)-hFc” value was determined as 74.1%. In assay [2] (setting [5]), the “Inhibition rate (%) LRRC4B (amino acids 453-576)-hFc” value is on record as 55.6%.

GYTNFTTVTVETLETQPGEE [FB-20[N3]]: the “Inhibition rate (%) LRRC4B (amino acids 36-576)-hFc” value in assay [1] (setting [5]) is listed as −5.0%. Further, the “Inhibition rate (%) LRRC4B (amino acids 453-576)-hFc” value in assay [2] (setting [5]) is 4.0%.

For the substance GYTYFTTVTVEALETQPGEE [FB-20[A11]], in assay [1] (setting [5]), the “Inhibition rate (%) LRRC4B (amino acids 36-576)-hFc” value was 73.4%. The “Inhibition rate (%) LRRC4B (amino acids 453-576)-hFc” value in assay [2] (setting [5]) worked out at 50.3%.

Turning to “LRRC4B (482-497): LRRC4B ectodomain fragment, amino acids 482-497 of SEQ ID NO: 2 (GGYTYFTTVTVETLET; also: dimerising Fc or GST fusion left off)”, the “inhibition of FAM19A5 binding to coated full-length LRRC4B ectodomain protein (in words)” value in assay [1] (increasing concentrations, FAM19A5 5 ng/mL, 100 nM coat) is listed as “also able to inhibit the interaction”.

Regarding GYTYFTTVTNETLETQPGEE [FB-20[N9]], the “Inhibition rate (%) LRRC4B (amino acids 36-576)-hFc” value in assay [1] (setting [5]) is listed as 17.5%. The “Inhibition rate (%) LRRC4B (amino acids 453-576)-hFc” value in assay [2] (setting [5]) amounted to 6.5%.

As for GYTYFTTVTVATLETQPGEE [FB-20[A10]], the “Inhibition rate (%) LRRC4B (amino acids 36-576)-hFc” value in assay [1] (setting [5]) is reported as 19.6%. Further, the “Inhibition rate (%) LRRC4B (amino acids 453-576)-hFc” value in assay [2] (setting [5]) came out at 6.4%.

(Values after US20240238445A1, “INHIBITORS AND USES THEREOF” (NEURACLE SCIENCE CO., LTD., priority 2021, published 2024).)
